# Test results taken from the RNAGym collection of RNA variant scans (doi:10.1093/nar/gkz1192).
# B1: CPEB3 Ribozyme (parent)
# chain: UAACAGGGGGCCACAGCAGAAGCGUUCACGUCGCAGCCCCUGUCAGAUUCUGGUGAAUCUGCGAAUUCUGCUGUAUAUCUC
# Variants of: B1
# Experiment: self-cleavage, relative activity (ratio to wild type); higher = more cleavage; in vitro, sequencing
# In short: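 After error-prone PCR and barcoding, CPEB3 ribozyme mutant libraries were transcribed with T7 RNA polymerase at 37°C for 5 hours, then given 15 min with DNase I before an EDTA stop, and they cleaved during both steps. Reverse transcription with template switching preceded Illumina sequencing. Relative activity divides a variant's cleaved/total read fraction by the unmutated ribozyme's. At least 5 reads were required per variant, and three batches were averaged.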
row,Variant,self-cleavage
1,UAACAGGGGGCCACAGCAGAUGCGUUCAUGUCGCAGCCCCUGUCAGAUUCUGGUGAAUCUGCGAAUUCUGCUGUAUAUCUC [A21U C29U],0.3
2,UAACAGGGGGCCACAGCAGAUGCGUUCAAGUCGCAGCCCCUGUCAGAUUCUGGUGAAUCUGCGAAUUCUGCUGUAUAUCUC [A21U C29A],0.21
3,UAACAGGGGGCCACAGCAGAUGCGUUCACGUAGCAGCCCCUGUCAGAUUCUGGUGAAUCUGCGAAUUCUGCUGUAUAUCUC [A21U C32A],0.14
4,UAACAGGGGGCCACAGCAGAUGUGUUCACGUCGCAGCCCCUGUCAGAUUCUGGUGAAUCUGCGAAUUCUGCUGUAUAUCUC [A21U C23U],0.24
5,UAACAGGGGGCCACAGCAGAUGAGUUCACGUCGCAGCCCCUGUCAGAUUCUGGUGAAUCUGCGAAUUCUGCUGUAUAUCUC [A21U C23A],0.22
6,UAACAGGGGGCCACAGCAGAUGGGUUCACGUCGCAGCCCCUGUCAGAUUCUGGUGAAUCUGCGAAUUCUGCUGUAUAUCUC [A21U C23G],0.07
7,UAACAGGGGGCCACAGCAGAGGCGUUCACGUCGCAGCCCCUGUCAGAUUCUGGUGAACCUGCGAAUUCUGCUGUAUAUCUC [A21G U58C],0.31
8,UAACAGGGGGCCACAGCAGAGGCGUUCACGUCGCAGCCCCUGUCAGAUUCUGGUGAAGCUGCGAAUUCUGCUGUAUAUCUC [A21G U58G],0.39
9,UAACAGGGGGCCACAGCAGAGGCGUUCACGUCGCAGCCCCUGUCAGAUUCUGGUGAAACUGCGAAUUCUGCUGUAUAUCUC [A21G U58A],0.29
10,UAACAGGGGGCCACAGCAGAGGCGUUCACGUCGCAGCCCCUGUCAGAUUCUGGUGAAUCUGCGAAUUCUGCAGUAUAUCUC [A21G U72A],0.44
11,UAACAGGGGGCCACAGCAGAGGCGUUCACGUCGCAGCCCCUGUCAGAUUCUGGUGAAUCUGCGAAUUCUGCGGUAUAUCUC [A21G U72G],0.53
12,UAACAGGGGGCCACAGCAGAGGCGUUCACGUCGCAGCCCCUGUCAGAUUCUGGUGAAUCUGCGAAUUCUGCCGUAUAUCUC [A21G U72C],0.65
13,UAACAGGGGGCCACAGCAGAUGCGUUCACGUCGCAGCCACUGUCAGAUUCUGGUGAAUCUGCGAAUUCUGCUGUAUAUCUC [A21U C39A],0.31
14,UAACAGGGGGCCACAGCAGAUGCGUUCACGUCGCAGCCUCUGUCAGAUUCUGGUGAAUCUGCGAAUUCUGCUGUAUAUCUC [A21U C39U],0.2
15,UAACAGGGGGCCACAGCAGAGGCGUUCACGUCGCAGCCCCUGUCAGAUUCUGGGGAAUCUGCGAAUUCUGCUGUAUAUCUC [A21G U54G],0.4
16,UAACAGGGGGCCACAGCAGAGGCGUUCACGUCGCAGCCCCUGUCAGAUUCUGGCGAAUCUGCGAAUUCUGCUGUAUAUCUC [A21G U54C],0.53
17,UAACAGGGGGCCACAGCAGAGGCGUUCACGUCGCAGCCCCUGUCAGAUUCUGGAGAAUCUGCGAAUUCUGCUGUAUAUCUC [A21G U54A],0.71
18,UAACAGGGGGCCACAGCAGAGGCGUUCACGUCGCAGCCCCUGUCAGAUUCUGGUGAAUCCGCGAAUUCUGCUGUAUAUCUC [A21G U60C],0.27
19,UAACAGGGGGCCACAGCAGAGGCGUUCACGUCGCAGCCCCUGUCAGAUUCUGGUGAAUCGGCGAAUUCUGCUGUAUAUCUC [A21G U60G],0.29
20,UAACAGGGGGCCACAGCAGAGGCGUUCACGUCGCAGCCCCUGUCAGAUUCUGGUGAAUCAGCGAAUUCUGCUGUAUAUCUC [A21G U60A],0.32
21,UAACAGGGGGCCACAGCAGAUGCGUUCACGUCGCAGUCCCUGUCAGAUUCUGGUGAAUCUGCGAAUUCUGCUGUAUAUCUC [A21U C37U],0.18
22,UAACAGGGGGCCACAGCAGAUGCGUUCACGUCGCAGCCCCUGUCAGAUUCUGGUGGAUCUGCGAAUUCUGCUGUAUAUCUC [A21U A56G],0.25
23,UAACAGGGGGCCACAGCAGAUGCGUUCACGUCGCAGCCCCUGUCAGAUUCUGGUGCAUCUGCGAAUUCUGCUGUAUAUCUC [A21U A56C],0.18

row,Variant,self-cleavage
1,UAACAGGGGGCCACAGCAGAUGCGUUCACGUCGCAGCCCCUGUCAGAUUCUGGUGUAUCUGCGAAUUCUGCUGUAUAUCUC [A21U A56U],0.2
2,UAACAGGGGGCCACAGCAGAGGCGUUCACGUCGCAGCCCCUGUCAGAUUCCGGUGAAUCUGCGAAUUCUGCUGUAUAUCUC [A21G U51C],0.6
3,UAACAGGGGGCCACAGCAGAGGCGUUCACGUCGCAGCCCCUGUCAGAUUCAGGUGAAUCUGCGAAUUCUGCUGUAUAUCUC [A21G U51A],0.64
4,UAACAGGGGGCCACAGCAGAGGCGUUCACGUCGCAGCCCCUGUCAGAUUCGGGUGAAUCUGCGAAUUCUGCUGUAUAUCUC [A21G U51G],0.72
5,UAACAGGGGGCCACAGCAGAGGCGUUCACGUCGCAGCCCCUGUCAGAUUCUGGUGAAUCUGCGAAUACUGCUGUAUAUCUC [A21G U67A],0.24
6,UAACAGGGGGCCACAGCAGAGGCGUUCACGUCGCAGCCCCUGUCAGAUUCUGGUGAAUCUGCGAAUCCUGCUGUAUAUCUC [A21G U67C],0.24
7,UAACAGGGGGCCACAGCAGAUGCGUUCACGUCGCAGCCCUUGUCAGAUUCUGGUGAAUCUGCGAAUUCUGCUGUAUAUCUC [A21U C40U],0.15
8,UAACAGGGGGCCACAGCAGAUGCGUUCACGUCGCAGCCCCUGUCAGAUUCUGGUGAAUCUGCGGAUUCUGCUGUAUAUCUC [A21U A64G],0.18
9,UAACAGGGGGCCACAGCAGAUGCGUUCACGUCGCAGCCCCUGUCAGAUUCUGGUGAAUCUGCGUAUUCUGCUGUAUAUCUC [A21U A64U],0.13
10,UAACAGGGGGCCACAGCAGAUGCGUUCACGUCGCAGCCCCUGUCAGUUUCUGGUGAAUCUGCGAAUUCUGCUGUAUAUCUC [A21U A47U],0.1
11,UAACAGGGGGCCACAGCAGAUGCGUUCACGUCGCAGCCCCUGUCAGGUUCUGGUGAAUCUGCGAAUUCUGCUGUAUAUCUC [A21U A47G],0.38
12,UAACAGGGGGCCACAGCAGAUGCGUUCACGUCGCAGCCCCUGUCAGAUUCUGGUGAAUCUGCGAAUUCUGCUGUAUGUCUC [A21U A77G],0.37
13,UAACAGGGGGCCACAGCAGAGGCGUUCACGUCGCAGCCCCUGUCAGAUUCUGGUGAAUCUGCGAAUUCAGCUGUAUAUCUC [A21G U69A],0.27
14,UAACAGGGGGCCACAGCAGAGGCGUUCACGUCGCAGCCCCUGUCAGAUUCUGGUGAAUCUGCGAAUUCGGCUGUAUAUCUC [A21G U69G],0.33
15,UAACAGGGGGCCACAGCAGAGGCGUUCACGUCGCAGCCCCUGUCAGAUUCUGGUGAAUCUGCGAAUUCCGCUGUAUAUCUC [A21G U69C],0.27
16,UAACAGGGGGCCACAGCAGAUGCGUUCACGUCGCAGCCCCUGUCAGAUUCUGGUGAAUCUGCGAAUUCUGCUGUAUAUCUC [A21U],0.37
17,UAACAGGGGGCCACAGCAGAGGCGUUCACGUCGCAGCCCCUGUCAGAUUCUGGUGAAUCUGCGAAUUCUGCUGUAUAUCGC [A21G U80G],0.76
18,UAACAGGGGGCCACAGCAGAGGCGUUCACGUCGCAGCCCCUGUCAGAUUCUGGUGAAUCUGCGAAUUCUGCUGUAUAUCCC [A21G U80C],0.74
19,UAACAGGGGGCCACAGCAGAGGCGUUCACGUCGCAGCCCCUGUCAGAUUCUGGUGAAUCUGCGAAUUCUGCUGUAUAUCAC [A21G U80A],0.72
20,UAACAGGGGGCCACAGCAGAUGCGUUCACGUCGCAGCCCCUGUCAGAUUCUGGUGAAUCUGCGAGUUCUGCUGUAUAUCUC [A21U A65G],0.34
21,UAACAGGGGGCCACAGCAGAUGCGUUCACGUCGCAGCUCCUGUCAGAUUCUGGUGAAUCUGCGAAUUCUGCUGUAUAUCUC [A21U C38U],0.29
22,UAACAGGGGGCCACAGCAGAUGCGUUCACGUCGCAGCCCCUGUCAGAUUCUGGUGAGUCUGCGAAUUCUGCUGUAUAUCUC [A21U A57G],0.33
23,UAACAGGGGGCCACAGCAGAUGCGUUCACGUCGCGGCCCCUGUCAGAUUCUGGUGAAUCUGCGAAUUCUGCUGUAUAUCUC [A21U A35G],1.03

row,Variant,self-cleavage
1,UAACAGGGGGCCACAGCAGAUGCGUUCACGUCGCUGCCCCUGUCAGAUUCUGGUGAAUCUGCGAAUUCUGCUGUAUAUCUC [A21U A35U],0.28
2,UAACAGGGGGCCACAGCAGAGGCGUUCACGUCGCAGCCCCUGUCAGAUUCUGGUGAAUCUGCGAAUUCUGCUGAAUAUCUC [A21G U74A],1.03
3,UAACAGGGGGCCACAGCAGAGGCGUUCACGUCGCAGCCCCUGUCAGAUUCUGGUGAAUCUGCGAAUUCUGCUGCAUAUCUC [A21G U74C],0.96
4,UAACAGGGGGCCACAGCAGAUGCGUUCACGUCGCAGCCCCUGUCUGAUUCUGGUGAAUCUGCGAAUUCUGCUGUAUAUCUC [A21U A45U],0.17
5,UAACAGGGGGCCACAGCAGAUGCGUUCACGUCGCAGCCCCUGUCGGAUUCUGGUGAAUCUGCGAAUUCUGCUGUAUAUCUC [A21U A45G],0.29
6,UAACAGGGGGCCACAGCAGAUGCGUUCACGUCGCAGCCCCUGUCCGAUUCUGGUGAAUCUGCGAAUUCUGCUGUAUAUCUC [A21U A45C],0.1
7,UAACAGGGGGCCACAGCAGAUGCGUUCACGUCGCAGCCCCUGUCAGAUUCUGGUGAAUCUGCGAAUUCUGCUGUGUAUCUC [A21U A75G],0.27
8,UAACAGGGGGCCACAGCAGAUGCGUUCACGUCGCAGCCCCUGUCAGAUUCUGGUGAAUCUGCGAAUUCUGCUGUUUAUCUC [A21U A75U],0.37
9,UAACAGGGGGCCACAGCAGAUGCGUUCACGUCGCAGCCCCUGUAAGAUUCUGGUGAAUCUGCGAAUUCUGCUGUAUAUCUC [A21U C44A],0.11
10,UAACAGGGGGCCACAGCAGAUGCGUUUACGUCGCAGCCCCUGUCAGAUUCUGGUGAAUCUGCGAAUUCUGCUGUAUAUCUC [A21U C27U],0.14
11,UAACAGGGGGCCACAGCAGAUGCGUUGACGUCGCAGCCCCUGUCAGAUUCUGGUGAAUCUGCGAAUUCUGCUGUAUAUCUC [A21U C27G],0.07
12,UAACAGGGGGCCACAGCAGAGGCGUUCACGUCGCAGCCCCUGUCAGAUUCUGGUGAAUCUGCGAACUCUGCUGUAUAUCUC [A21G U66C],1.05
13,UAACAGGGGGCCACAGCAGAGGCGUUCACGUCGCAGCCCCUGUCAGAUUCUGGUGAAUCUGCGAAGUCUGCUGUAUAUCUC [A21G U66G],0.44
14,UAACAGGGGGCCACAGCAGAGGCGUUCACGUCGCAGCCCCUGUCAGAUUCUGGUGAAUCUGCGAAAUCUGCUGUAUAUCUC [A21G U66A],0.42
15,UAACAGGGGGCCACAGCAGAGGCGUUCACGUCGCAGCCCCUGUCAGAUUCUGGUGAAUCUGCGAAUUCUGCUGUAUAACUC [A21G U78A],0.53
16,UAACAGGGGGCCACAGCAGAGGCGUUCACGUCGCAGCCCCUGUCAGAUUCUGGUGAAUCUGCGAAUUCUGCUGUAUACCUC [A21G U78C],0.58
17,UAACAGGGGGCCACAGCAGAUGCGUUCCCGUCGCAGCCCCUGUCAGAUUCUGGUGAAUCUGCGAAUUCUGCUGUAUAUCUC [A21U A28C],0.15
18,UAACAGGGGGCCACAGCAGAUGCGUUCUCGUCGCAGCCCCUGUCAGAUUCUGGUGAAUCUGCGAAUUCUGCUGUAUAUCUC [A21U A28U],0.23
19,UAACAGGGGGCCACAGCAGAUGCGUUCGCGUCGCAGCCCCUGUCAGAUUCUGGUGAAUCUGCGAAUUCUGCUGUAUAUCUC [A21U A28G],0.22
20,UAACAGGGGGCCACAGCAGAGGCGUUCACGUCGCAGCCCCUGUCAGAUUCUGGUGAAUCUGCGAAUUCUGCUGUAAAUCUC [A21G U76A],0.55
21,UAACAGGGGGCCACAGCAGAGGCGUUCACGUCGCAGCCCCUGUCAGAUUCUGGUGAAUCUGCGAAUUCUGCUGUAGAUCUC [A21G U76G],0.66
22,UAACAGGGGGCCACAGCAGAGGCGUUCACGUCGCAGCCCCUGUCAGAUUCUGGUGAAUCUGCGAAUUCUGCUGUACAUCUC [A21G U76C],0.63
